Residue numbers refer to the chain shown, from its start.
B1: anti-CCR5 antibody with heavy chain variable domain SEQ ID NO: 6 and light chain variable domain SEQ ID NO: 9, mutated IgG1 (IgG1v2) constant region (antibody, name in EU numbering, V domains shown)
VH: QVQLQESGPGLVKPSQSLSITCTVSGFPLGAFGVHWVRQSPGKGPEWLGVIWKGGNTDYNAAFKSRLRITKDNSKSQVFFRMNSLQTDDTATYYCAKVNLADAMDYWGQGTTVTVSS
VL: DIQMTQSPASLSASVGETVTITCRASGNAHGYLAWYQQKPGKAPKLLIYNTKTLAEGVPSRFSGSGSGTQFSLKINSAQPEDFGNYYCQHHYDLPRTFGGGTKVEIKR
B2: anti-CCR5 antibody with heavy chain variable domain SEQ ID NO: 6 and light chain variable domain SEQ ID NO: 10, mutated IgG1 (IgG1v2) constant region (antibody, name in EU numbering, V domains shown)
VH: B1 VH
VL: B1 VL with I48V
B3: anti-CCR5 antibody with heavy chain variable domain SEQ ID NO: 8 and light chain variable domain SEQ ID NO: 10, mutated IgG1 (IgG1v2) constant region (antibody, name in EU numbering, V domains shown)
VH: B1 VH with P45L, T92I
VL: B1 VL with I48V
B4: anti-CCR5 antibody with heavy chain variable domain SEQ ID NO: 8 and light chain variable domain SEQ ID NO: 9, mutated IgG1 (IgG1v2) constant region (antibody, name in EU numbering, V domains shown)
VH: B1 VH with P45L, T92I
VL: B1 VL
B5: anti-CCR5 antibody with heavy chain variable domain SEQ ID NO: 7 and light chain variable domain SEQ ID NO: 9, mutated IgG1 (IgG1v2) constant region (antibody, name in EU numbering, V domains shown)
VH: B1 VH with P45L
VL: B1 VL
B6: anti-CCR5 antibody with heavy chain variable domain SEQ ID NO: 7 and light chain variable domain SEQ ID NO: 10, mutated IgG1 (IgG1v2) constant region (antibody, name in EU numbering, V domains shown)
VH: B1 VH with P45L
VL: B1 VL with I48V

biological target: human CC chemokine receptor CCR5 (human) (UniProt P51681); test: cell-based or functional assay

Binder | IC50, cell-cell fusion assay (gp160-expressing HeLa cells with CEM.NKR-CCR5-Luc cells, luciferase) [µg/mL]
B1 | 0.108
B2 | 0.399
B3 | 0.076
B4 | 0.132
B5 | 0.046
B6 | 0.152
